Assay results: patent publication US20180362652A1 (Biogen, published 2018)

Columns and labels:
[1] = biological target: T1, human C1q (human, UniProt P02745 23-245; P02746 28-253; P02747 29-245); assay: C1q ELISA: antibody coated in a dilution series, human C1q at 2 µg/mL, read at 450 nm; column C (midpoint, the C value of paragraph 430) of the printed 4-parameter fit; the axis reads Concentration with no unit, the unit of the coated antibody is from the legend paragraph 61; A 0.061, B 2.527, D 2.212, R^2 1
T1 construct: also called complement component C1q
T1 sequence (P02745 23-245 limits assumed, chain 1 of 3): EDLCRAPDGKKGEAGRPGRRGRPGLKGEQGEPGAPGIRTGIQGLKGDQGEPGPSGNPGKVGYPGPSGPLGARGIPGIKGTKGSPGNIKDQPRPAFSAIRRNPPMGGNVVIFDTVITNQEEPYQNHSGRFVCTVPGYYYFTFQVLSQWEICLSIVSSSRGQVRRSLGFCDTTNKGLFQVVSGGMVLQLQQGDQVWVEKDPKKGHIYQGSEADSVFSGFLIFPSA
T1 sequence (P02746 28-253 limits assumed, chain 2 of 3): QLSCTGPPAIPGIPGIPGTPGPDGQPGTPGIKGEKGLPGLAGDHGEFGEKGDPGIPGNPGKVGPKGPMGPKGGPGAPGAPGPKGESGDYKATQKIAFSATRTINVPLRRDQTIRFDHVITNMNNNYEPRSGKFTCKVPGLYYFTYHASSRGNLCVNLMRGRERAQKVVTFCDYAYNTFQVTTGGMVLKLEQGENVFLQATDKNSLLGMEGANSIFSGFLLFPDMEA
T1 sequence (P02747 29-245 limits assumed, chain 3 of 3): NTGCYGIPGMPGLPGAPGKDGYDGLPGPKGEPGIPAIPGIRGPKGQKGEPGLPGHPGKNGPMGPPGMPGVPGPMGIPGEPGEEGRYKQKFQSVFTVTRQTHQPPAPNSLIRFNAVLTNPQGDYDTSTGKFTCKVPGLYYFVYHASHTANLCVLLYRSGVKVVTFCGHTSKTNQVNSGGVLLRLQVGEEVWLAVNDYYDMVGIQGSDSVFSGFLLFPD

[2] = biological target: T2, cynomolgus monkey BDCA2 (full-length, cell surface, E73 SNP form) (cynomolgus monkey, UniProt Q8WTT0 1-213 (human entry)); assay: flow cytometry, whole blood pDCs of cynomolgus monkey donor 2, anti-human IgG PE secondary
T2 construct: also called cyno BDCA2; surface cynomolgus monkey BDCA2
T2 chain: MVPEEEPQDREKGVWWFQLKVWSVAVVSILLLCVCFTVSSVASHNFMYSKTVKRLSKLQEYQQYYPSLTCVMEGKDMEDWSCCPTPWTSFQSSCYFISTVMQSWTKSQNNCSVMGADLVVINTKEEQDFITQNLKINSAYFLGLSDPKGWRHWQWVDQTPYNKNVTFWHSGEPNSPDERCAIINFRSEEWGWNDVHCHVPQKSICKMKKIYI
Description: (§1) The MFI of PE was calculated in FlowJo software, and the percent of maximal binding, using the 40 μg/mL point as 100%, was computed. Each line represents one individual cynomolgus monkey, for a total of twelve cynomolgus monkeys, and graphed using GraphPad Prism software (four-parameter nonlinear regression curve fit of log-transformed data). Staining was repeated once a week for three weeks total.
(§2) The maximal values were taken from the values at the plateau in each assay (FIGS. 24 and 25).
(§3) MFI of PE was calculated with FlowJo software, and EC50 curves were generated in GraphPad Prism software.

[3] = biological target: T2, cynomolgus monkey BDCA2 (full-length, …); assay: flow cytometry, whole blood pDCs of cynomolgus monkey donor 5, anti-human IgG PE secondary
Description: as §2, §3

[4] = biological target: T2, cynomolgus monkey BDCA2 (full-length, …); assay: flow cytometry, whole blood pDCs of cynomolgus monkey donor 1, anti-human IgG PE secondary
Description: as §1, §2, §3

[5] = biological target: T2, cynomolgus monkey BDCA2 (full-length, …); assay: flow cytometry, whole blood pDCs of cynomolgus monkey donor 3, anti-human IgG PE secondary
Description: as §1, §2, §3

[6] = biological target: T2, cynomolgus monkey BDCA2 (full-length, …); assay: flow cytometry, whole blood pDCs of cynomolgus monkey donor 12, anti-human IgG PE secondary
Description: as §1, §2, §3

[7] = biological target: T2, cynomolgus monkey BDCA2 (full-length, …); assay: indirect method: flow cytometry of pDCs in cynomolgus whole blood, unlabelled BIIB059 titrated, free BDCA2 detected with the competitor BIIB059-A647 at 10 ug/mL [panel Cynomolgus monkey 1]
Description: The MFI of PE (open symbols, graphed on the left y-axis) or A647 (closed symbols, graphed on the right y-axis) was calculated in FlowJo software, and graphed using GraphPad Prism software (four-parameter nonlinear regression curve fit of log-transformed data).
as §2

[8] = biological target: T2, cynomolgus monkey BDCA2 (full-length, …); assay: flow cytometry, whole blood pDCs of cynomolgus monkey donor 8, anti-human IgG PE secondary
Description: as §1, §2, §3

[9] = biological target: T2, cynomolgus monkey BDCA2 (full-length, …); assay: cell-based or functional assay

B1: BIIB059 (antibody, human IgG1, kappa)
heavy: not shown
light: DIQLTQSPSSLSASVGDRVTITCKASQSVDYDGDSYMNWYQQKPGKAPKLLIYAASTLESGVPSRFSGSGSGTDFTLTISSLQPEDFATYYCQQANEDPRTFGQGTKVEIKRTVAAPSVFIFPPSDEQLKSGTASVVCLLNNFYPREAKVQWKVDNALQSGNSQESVTEQDSKDSTYSLSSTLTLSKADYEKHKVYACEVTHQGLSSPVTKSFNRGEC
notes: Humanized IgG1 kappa, mature chains; in some assays labelled with Alexa647; also called hu24F4 H4/L1 C95A; H4-L1-C95A (YL751/YL746)
EC50 [1]: 2.5 µg/mL | EC50 [2]: 1 µg/mL | EC50 [3]: 0.71 µg/mL | EC50 [4]: 0.81 µg/mL | EC50 [5]: 0.95 µg/mL | EC50 [6]: 1.6 µg/mL | IC50 (read off the curve) [7]: ~1 µg/mL | EC50 [8]: 1.2 µg/mL | EC50 of BDCA2 internalization on pDCs (cynomolgus monkey 3, IV 10 mg/kg) [9]: 0.15 µg/mL | EC50 of BDCA2 internalization on pDCs (cynomolgus monkey 4, SC 0.2 mg/kg) [9]: 0.088 µg/mL | EC50 of BDCA2 internalization on pDCs (cynomolgus monkey 5, IV 1 mg/kg) [9]: 0.087 µg/mL | EC50 of BDCA2 internalization on pDCs (cynomolgus monkey 6, IV 1 mg/kg) [9]: 0.025 µg/mL | EC50 of BDCA2 internalization on pDCs (cynomolgus monkey 6, SC 0.2 mg/kg) [9]: 0.046 µg/mL | EC50 of BDCA2 internalization on pDCs (cynomolgus monkey 7, IV 1 mg/kg) [9]: 0.09 µg/mL | EC50 of BDCA2 internalization on pDCs (cynomolgus monkey 8, IV 10 mg/kg) [9]: 0.37 µg/mL | EC50 of BDCA2 internalization on pDCs (cynomolgus monkey 10, IV 10 mg/kg) [9]: 0.126 µg/mL | EC50 of BDCA2 internalization on pDCs (cynomolgus monkey 12, SC 0.2 mg/kg) [9]: 0.121 µg/mL | EC50 of BDCA2 internalization on pDCs (mean of the cynomolgus monkeys) [9]: 0.123 µg/mL
